Results taken from article PMC7674511 (2020).

B1: BAG6 LIR1 peptide (residues 124-143) [modified: FITC label (position not stated), told for the anisotropy assay; FITC label (position not stated), told for the anisotropy assay] [not stated] / LC3B-I [not stated] (parent complex)
chain 1: VHDRNANSYVMVGTFNLPSD
chain 2: not shown
B2: FLAG-BAG6(1-266aa) [not stated] / GFP-LC3B [not stated] (parent complex)
chain 1: MEPNDSTSTAVEEPDSLEVLVKTLDSQTRTFIVGAQMNVKEFKEHIAASVSIPSEKQRLIYQGRVLQDDKKLQEYNVGGKVIHLVERAPPQTHLPSGASSGTGSASATHGGGSPPGTRGPGASVHDRNANSYVMVGTFNLPSDGSAVDVHINMEQAPIQSEPRVRLVMAQHMIRDIQTLLSRMECRGGPQPQHSQPPPQPPAVTPEPVALSSQTSEPVESEAPPREPMEAEEVEERAPAQNPELTPGPAPAGPTPAPETNAPNHPS
chain 2: not shown

Variants of: B1
Experiment: fluorescence anisotropy; FITC-labeled peptide 1 μM; read at the highest LC3B-I concentration plotted (about 48 μM); read off a plot

For chain 1 Y9A, chain 1 V12A, which response is on record?
Its response is about 0.001.

Variants of: B2
Experiment: co-immunoprecipitation (FLAG pulldown with anti-FLAG beads, immunoblot); HEK293FT cells transfected with GFP-LC3B and FLAG-BAG6(1-266aa) constructs

For chain 1 Y132A, chain 1 V135A, which ratio to parent is on record?
The ratio to parent was 0.79.

With chain 1 Y132A, chain 1 V133A, chain 1 M134A, chain 1 V135A as the variant, how does the ratio to parent read?
The ratio to parent was 0.23.
